# Source: the supplement of paper PMC10724198
# ± gives the standard deviation of the averaged measurements.
# Test system: Saccharomyces cerevisiae
# Test: protein stability index of tFT-peptide fusion (C-terminal peptide) (PSI (0-1 scale)); higher = more stable (slower turnover)
# Conditions: genetic background: das1 deletion; temperature: 30 C
# Experimental: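 MPS profiling in S. cerevisiae of the yeast C-terminome library: the last 12 aa of each annotated ORF are fused to the C-terminus of a sfGFP-mCherry timer, after a GGGS linker. Cells are FACS-sorted into 8 mCherry/sfGFP bins and deep-sequenced. PSI runs from 0 (unstable) to 1 (stable); wild type and das1Δ backgrounds, two technical replicates each.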
row,Sequence,protein stability index
1,GALVGYTIGAYI [GPI11 C-terminal 12 aa],0.666 ± 0.015
2,GAPANKRPRRGL [SMD1 C-terminal 12 aa],0.737 ± 0.026
3,GDPIDLKEKKLN [RER2 C-terminal 12 aa],0.705 ± 0.031
4,GDTLYEEFGISK [ARO8 C-terminal 12 aa],0.709 ± 0.0035
5,GESSINSSTRHA [CTK2 C-terminal 12 aa],0.683 ± 0.015
6,GEYLRDEDTLFT [NIP7 C-terminal 12 aa],0.727 ± 0.011
7,GFRPAGATRFYS [YHR086W-A C-terminal 12 aa],0.6965 ± 0.0029
8,GGFFKKLAQLLK [MDG1 C-terminal 12 aa],0.704 ± 0.015
9,GGLHFHGESFAL [FRE8 C-terminal 12 aa],0.699 ± 0.0096
10,GIGFTNTSKKIA [RCL1 C-terminal 12 aa],0.708 ± 0.027
11,GINLNISYSSGK [ULI1 C-terminal 12 aa],0.706 ± 0.012
12,GIPNFKLKVTQI [GAB1 C-terminal 12 aa],0.6896 ± 0.0036
13,GKDRPSRFNSKK [TEX1 C-terminal 12 aa],0.693 ± 0.011
14,GKEVRKLRPENQ [ILV5 C-terminal 12 aa],0.691 ± 0.014
15,GKGKKKMVVLEW [ETR1 C-terminal 12 aa],0.692 ± 0.026
16,GKRRMNPGPSVQ [RPS30A C-terminal 12 aa],0.696 ± 0.0085
17,GKSHPFHSSDRY [YJL211C C-terminal 12 aa],0.6884 ± 0.0033
18,GLGDFGDRYYCV [FUR1 C-terminal 12 aa],0.7105 ± 0.0059
19,GLLRKGLVKRDI [YHR193C-A C-terminal 12 aa],0.6883 ± 0.0029
20,GLVGQHQGGGSM [RTC5 C-terminal 12 aa],0.68 ± 0.0094
21,GNISLLYSQGRL [RSC6 C-terminal 12 aa],0.723 ± 0.013

row,Sequence,protein stability index
1,GNLSLDWLNLNL [GAT1 C-terminal 12 aa],0.735 ± 0.01
2,GNNKKKRSVKRE [PBN1 C-terminal 12 aa],0.688 ± 0.013
3,GPEPPRYDEISS [CSR2 C-terminal 12 aa],0.705 ± 0.058
4,GPSIIMTLYLTL [ARE1 C-terminal 12 aa],0.496 ± 0.021
5,GTFPRNERYYHK [PHA2 C-terminal 12 aa],0.71 ± 0.0099
6,GTLVLGTYLLAQ [SHH3 C-terminal 12 aa],0.612 ± 0.027
7,GVGRIITQPQRY [HUA1 C-terminal 12 aa],0.7038 ± 0.0018
8,GWYVGRYYRITR [IMD1 C-terminal 12 aa],0.714 ± 0.017
9,GYETAIHYLRMY [TPC1 C-terminal 12 aa],0.701 ± 0.013
10,HAYVIEKLPDVF [FCF1 C-terminal 12 aa],0.719 ± 0.0048
11,HCLSLCTIQKMI [YOR231C-A C-terminal 12 aa],0.7075 ± 0.0048
12,HELESINSGGAW [YMR31 C-terminal 12 aa],0.702 ± 0.0072
13,HIDIPDFSKWDV [SUL1 C-terminal 12 aa],0.7412 ± 0.0047
14,HKGSHFYIQLPI [YAL034C-B C-terminal 12 aa],0.7079 ± 0.0061
15,HKGSTLDIMSID [QNS1 C-terminal 12 aa],0.72 ± 0.0096
16,HKSLKLAKKDKK [AGE1 C-terminal 12 aa],0.6837 ± 0.0037
17,HKVIAVGRIACQ [SKI7 C-terminal 12 aa],0.5897 ± 0.0016
18,HPRLCVFSCMMI [YJR128W C-terminal 12 aa],0.6901 ± 0.0059
19,HQVERKAVDIVL [YPR096C C-terminal 12 aa],0.691 ± 0.016
20,HRDIVSAGSLYL [MTR4 C-terminal 12 aa],0.723 ± 0.034
21,HTSSKEIDLLSF [ENT3 C-terminal 12 aa],0.721 ± 0.026

row,Sequence,protein stability index
1,IAAFVVAVLFAF [PRY3 C-terminal 12 aa],0.213 ± 0.012
2,ICRVAIWSAERI [CAT5 C-terminal 12 aa],0.693 ± 0.015
3,IDDINNDKWLVI [PSK1 C-terminal 12 aa],0.725 ± 0.001
4,IDNPEACEMCSG [RNR1 C-terminal 12 aa],0.702 ± 0.022
5,IEKADIVQQAIR [SLP1 C-terminal 12 aa],0.691 ± 0.008
6,IFKKIRLLLHVN [MCP1 C-terminal 12 aa],0.615 ± 0.013
7,IIFGHDNLWTVR [ALG7 C-terminal 12 aa],0.742 ± 0.022
8,IIQSYINLLEEN [NKP2 C-terminal 12 aa],0.708 ± 0.017
9,IKAAIDRVDHSL [YKR018C C-terminal 12 aa],0.6778 ± 0.0045
10,IKLNKKKVKLST [HHO1 C-terminal 12 aa],0.664 ± 0.0086
11,IKQRELNAADKC [MAL11 C-terminal 12 aa],0.696 ± 0.0096
12,IKYNWERCFNGE [YDR521W C-terminal 12 aa],0.71 ± 0.014
13,ILLITGFKSSFT [SRL4 C-terminal 12 aa],0.72 ± 0.018
14,ILNCVGSAKISG [YGR291C C-terminal 12 aa],0.668 ± 0.025
15,ILRQYFTDLASS [REA1 C-terminal 12 aa],0.675 ± 0.026
16,IMPDRFDYENYY [TMS1 C-terminal 12 aa],0.739 ± 0.0052
17,INDWLSSWKRSK [CRR1 C-terminal 12 aa],0.756 ± 0.017
18,INSQTMTVTTAL [VHC1 C-terminal 12 aa],0.685 ± 0.039
19,IPAYKKHGIQKN [OSH7 C-terminal 12 aa],0.694 ± 0.012

# Same assay, conditions: genetic background: wild type; temperature: 30 C
row,Sequence,protein stability index
1,GALVGYTIGAYI [GPI11 C-terminal 12 aa],0.673 ± 0.055
2,GAPANKRPRRGL [SMD1 C-terminal 12 aa],0.7365 ± 0.0044
3,GDPIDLKEKKLN [RER2 C-terminal 12 aa],0.196 ± 0.032
4,GDTLYEEFGISK [ARO8 C-terminal 12 aa],0.712 ± 0.046
5,GESSINSSTRHA [CTK2 C-terminal 12 aa],0.6853 ± 0.0058
6,GEYLRDEDTLFT [NIP7 C-terminal 12 aa],0.725 ± 0.013
7,GFRPAGATRFYS [YHR086W-A C-terminal 12 aa],0.691 ± 0.016
8,GGFFKKLAQLLK [MDG1 C-terminal 12 aa],0.719 ± 0.07
9,GGLHFHGESFAL [FRE8 C-terminal 12 aa],0.712 ± 0.036
10,GIGFTNTSKKIA [RCL1 C-terminal 12 aa],0.5373 ± 0.0012
11,GINLNISYSSGK [ULI1 C-terminal 12 aa],0.681 ± 0.0044
12,GIPNFKLKVTQI [GAB1 C-terminal 12 aa],0.706 ± 0.041
13,GKDRPSRFNSKK [TEX1 C-terminal 12 aa],0.667 ± 0.038
14,GKEVRKLRPENQ [ILV5 C-terminal 12 aa],0.654 ± 0.024
15,GKGKKKMVVLEW [ETR1 C-terminal 12 aa],0.712 ± 0.018
16,GKRRMNPGPSVQ [RPS30A C-terminal 12 aa],0.6758 ± 0.0052
17,GKSHPFHSSDRY [YJL211C C-terminal 12 aa],0.699 ± 0.023
18,GLGDFGDRYYCV [FUR1 C-terminal 12 aa],0.697 ± 0.007
19,GLLRKGLVKRDI [YHR193C-A C-terminal 12 aa],0.677 ± 0.033
20,GLVGQHQGGGSM [RTC5 C-terminal 12 aa],0.6633 ± 0.0038
21,GNISLLYSQGRL [RSC6 C-terminal 12 aa],0.714 ± 0.053

row,Sequence,protein stability index
1,GNLSLDWLNLNL [GAT1 C-terminal 12 aa],0.7689 ± 0.0048
2,GNNKKKRSVKRE [PBN1 C-terminal 12 aa],0.717 ± 0.036
3,GPEPPRYDEISS [CSR2 C-terminal 12 aa],0.635 ± 0.025
4,GPSIIMTLYLTL [ARE1 C-terminal 12 aa],0.5045 ± 0.0024
5,GTFPRNERYYHK [PHA2 C-terminal 12 aa],0.78 ± 0.021
6,GTLVLGTYLLAQ [SHH3 C-terminal 12 aa],0.639 ± 0.037
7,GVGRIITQPQRY [HUA1 C-terminal 12 aa],0.701 ± 0.043
8,GWYVGRYYRITR [IMD1 C-terminal 12 aa],0.6944 ± 0.0055
9,GYETAIHYLRMY [TPC1 C-terminal 12 aa],0.3927 ± 0.0037
10,HAYVIEKLPDVF [FCF1 C-terminal 12 aa],0.698 ± 0.016
11,HCLSLCTIQKMI [YOR231C-A C-terminal 12 aa],0.159 ± 0.01
12,HELESINSGGAW [YMR31 C-terminal 12 aa],0.689 ± 0.0016
13,HIDIPDFSKWDV [SUL1 C-terminal 12 aa],0.718 ± 0.016
14,HKGSHFYIQLPI [YAL034C-B C-terminal 12 aa],0.677 ± 0.0077
15,HKGSTLDIMSID [QNS1 C-terminal 12 aa],0.667 ± 0.025
16,HKSLKLAKKDKK [AGE1 C-terminal 12 aa],0.738 ± 0.13
17,HKVIAVGRIACQ [SKI7 C-terminal 12 aa],0.611 ± 0.016
18,HPRLCVFSCMMI [YJR128W C-terminal 12 aa],0.67 ± 0.035
19,HQVERKAVDIVL [YPR096C C-terminal 12 aa],0.712 ± 0.09
20,HRDIVSAGSLYL [MTR4 C-terminal 12 aa],0.7 ± 0.036
21,HTSSKEIDLLSF [ENT3 C-terminal 12 aa],0.7104 ± 0.0067

row,Sequence,protein stability index
1,IAAFVVAVLFAF [PRY3 C-terminal 12 aa],0.205 ± 0.012
2,ICRVAIWSAERI [CAT5 C-terminal 12 aa],0.658 ± 0.034
3,IDDINNDKWLVI [PSK1 C-terminal 12 aa],0.688 ± 0.041
4,IDNPEACEMCSG [RNR1 C-terminal 12 aa],0.694 ± 0.027
5,IEKADIVQQAIR [SLP1 C-terminal 12 aa],0.66 ± 0.033
6,IFKKIRLLLHVN [MCP1 C-terminal 12 aa],0.2 ± 0.03
7,IIFGHDNLWTVR [ALG7 C-terminal 12 aa],0.767 ± 0.041
8,IIQSYINLLEEN [NKP2 C-terminal 12 aa],0.756 ± 0.059
9,IKAAIDRVDHSL [YKR018C C-terminal 12 aa],0.692 ± 0.041
10,IKLNKKKVKLST [HHO1 C-terminal 12 aa],0.6099 ± 0.0033
11,IKQRELNAADKC [MAL11 C-terminal 12 aa],0.6741 ± 0.0048
12,IKYNWERCFNGE [YDR521W C-terminal 12 aa],0.697 ± 0.04
13,ILLITGFKSSFT [SRL4 C-terminal 12 aa],0.737 ± 0.038
14,ILNCVGSAKISG [YGR291C C-terminal 12 aa],0.654 ± 0.02
15,ILRQYFTDLASS [REA1 C-terminal 12 aa],0.696 ± 0.041
16,IMPDRFDYENYY [TMS1 C-terminal 12 aa],0.698 ± 0.0097
17,INDWLSSWKRSK [CRR1 C-terminal 12 aa],0.727 ± 0.021
18,INSQTMTVTTAL [VHC1 C-terminal 12 aa],0.69051 ± 0.00012
19,IPAYKKHGIQKN [OSH7 C-terminal 12 aa],0.693 ± 0.038
